Six molecules from publication PMC2892007, “The Terminal Immunoglobulin-Like Repeats of LigA and LigB of Leptospira Enhance Their Binding to Gelatin Binding Domain of Fibronectin and Host Cells” (PLoS ONE, 2010) can be followed below.

Common to all, as to conditions: both partners purified
Test [1] addresses T1, Gelatin-binding domain of human plasma fibronectin (human).
T1 construct: also called GBD; source: bought: Sigma-Aldrich
Put plainly: SPR.

For test [2], the target named is T1, Gelatin-binding domain of human plasma …. Put plainly: SEC-MALS; mixtures of Lig protein and GBD on Superose 6, 20 mM HEPES, 150 mM NaCl, pH 7.5. On the technique in general: Size exclusion chromatography separates by hydrodynamic size, large species first.
Test [3] shares this target. The experiment in a line: ITC; GBD in the cell (1 ml), Lig protein in the syringe (250 µl), 25 injections of 10 µl, 25°C, Tris buffer with 100 µM CaCl2; independent binding model. (In general: Isothermal titration calorimetry measures the heat released or taken up as one component is titrated into another.)
For test [4] the target is unchanged. Described as above. The source holds these as a separate data set.
Test [5] shares this target. Put plainly: ELISA. In general terms: In an ELISA, binding on a coated surface is turned into a signal by an enzyme label.

B1: LigAVar13 (domain or fragment)
chain: ITISLSSISKTKGSTHQFKATGKFENGAEIDLTELVTWSSSNPTVVSISNVDDERGLATALSVGSSKISVDYNSISSSIDFEVTPEILASIKTEP
modifications: biotin (in the ELISA)
In test [1], B1 showed a koff of 0.0053 s⁻¹ and a kon of 510 M⁻¹ s⁻¹.

B2: LigAVar11 (domain or fragment)
chain: FQVTPAKVVSIEVIPNNISFAKGNSYQFKATGIYTDHSEADITEQVTWSSSNPKIASVENTFGSAGLVNTTNIGSTNITAKLSDTVSGASVLNVTPALLRY
modifications: biotin (in the ELISA)
In test [1], B2 registered a koff of 0.00599 s⁻¹ and a kon of 1190 M⁻¹ s⁻¹.

B3: LigAVar7'-8 (domain or fragment)
chain: LTVSNTNAKRGLGSTLKQGTVKVTASMGGIEDSVDFTVTQATLTSIEVSPTRASIAKGMTQKFTATGIFTDHSKKNITEQVTWKSSSKALSMLNAPGEEGTGKAIAVGKHYYYCNLRKTFRENRYYRYSRNSYFN
modifications: biotin (in the ELISA)
In test [1], B3 yielded an off-rate (koff) of 0.00501 s⁻¹ and a kon of 750 M⁻¹ s⁻¹. Also, the “stoichiometry N” value in test [2] is 0.95 GBD: Lig. Moreover, in test [3], the Kd is 6750 ± 110 nM, the dH was -28.6 ± 5.14 kcal/mol and the “stoichiometry N” value was 1.01 ± 0.04 Lig: GBD.

B4: LigAVar10 (domain or fragment)
chain: LSVTAAELIEIVLDPTSSHKAKGLTENFKATGVFTDNSTKDITDQVTWKSSKTAYAKISNATGSKRVVNAISKGTSHISATLGSISSANATFQVTPAKVV
modifications: biotin (in the ELISA)
In the case of B4, in test [1], the koff was 0.00506 s⁻¹ and the kon was 1190 M⁻¹ s⁻¹.

B5: Histidine-tagged LigBCen2R (domain or fragment)
chain: TATYNSISENIDITVSAATLSSISISPINTNINATVSKQFFAVGTYSDGTKADLTSSVTWSSSNKSQAKVSNASKTKGLVTGIASGNSIITATYGSVSGNTILTVNKTDTI
With B5, in test [1], the off-rate constant (koff) amounted to 0.00923 s⁻¹ and the kon came out at 4830 M⁻¹ s⁻¹. In addition, in test [4], the equilibrium dissociation constant (Kd) is 1880 ± 90 nM, the dH is -29.2 ± 3.58 kcal/mol and the “stoichiometry N” value turned out to be 0.995 ± 0.01.

B6: LigBCen7'-12 (domain or fragment)
chain: AEITNTSGSKGITNTLTPGSSEISAALGSIKSSKVILKVTPAQLISIAVTPINPSVAKGLIRQFKATGTYTDHSVQDVTALATWSSSNPRKAMVNNVTGSVTTVATGNTNIKATIDSISGSSVLNVTPALLTSIEITPTINSITHGLTKQFKATGIFSDKSTQNLTQLVTWISSDPSKIEIENTSGKKGIATASKLGSSNIKAVYKFIQSSPIPITVTDLKLKSITISPSSSSIAKGLTQQFKAIGTFIDGSEQEITNLVTWYSSKSDVAPINNAANEKGLATALSIGSSDIYAIYNSISSNKINFNVSAATLDSIKINPVNNNIAKGLTQQYTALGVYSDSTIQDISDSVTWSSSNSSSISISNSTETKGKATALQIGNSKITATYNSISENIDITVSAATLSSISISPINTNINTTVSKQFFAVGTYSDGTKADLTSSVTWSSSNQSQAKVSNASETKGLVTGIASGNPTIIATYGSVSGNTILTVNKTDTI
modifications: biotin (in the ELISA)
B6: the results for the “stoichiometry N” value in test [2] and in test [3] were 3.03 GBD: Lig and 0.33 ± 0.02 Lig: GBD, respectively. Besides, the Kd in test [3] is 49 ± 2 nM; in test [5], 49 ± 7 nM. Moreover, the dH in test [3] was -95.7 ± 3.85 kcal/mol.

The term koff denotes the rate constant with which the complex falls apart. Read a low koff as a long-lived complex. The term kon denotes a measure of how fast the partners come together. Low readings indicate slower complex formation, high ones faster complex formation. Usually stoichiometry N stands for the number of molecules, sites or subunits per partner or assembly. As a reminder, the Kd is a measure of binding affinity in units of concentration. A high value points to weaker binding.
